Assay: soluble on expression in E. coli; label from the status in PepcDB or PDB records

Sequence | soluble on expression in E. coli
MHHHHHHSSGVDLGTENLYFQSMLAVHFDKPGGPENLYVKEVAKPSPGEGEVLLKVAASALNRADLMQRQGQYDPPPGASNILGLEASGHVAELGPGCQGHWKIGDTAMALLPGGGQAQYVTVPEGLLMPIPEGLTLTQAAAIPEAWLTAFQLLHLVGNVQAGDYVLIHAGLSGVGTAAIQLTRMAGAIPLVTAGSQKKLQMAEKLGAAAGFNYKKEDFSEATLKFTKGAGVNLILDCIGGSYWEKNVNCLALDGRWVLYGLMGGGDINGPLFSKLLFKRGSLITSLLRSRDNKYKQMLVNAFTEQILPHFSTEGPQRLLPVLDRIYPVTEIQEAHKYMEANKNIGKIVLELPQ | soluble
DLSKNSDVAYLWCSSNKLTSLNLSGVKGLSVLVCHSNQIAGEEMTKVVNALPTLSPGAGAQSKFVVVDLKDTDEKNICTVKDVEKAKSKNWRVFDFNGDSDNMLPYEGSPTSNLAVDAPTVRIYPNPVGRYALVEIPESLLGQEAALYDMNGVKVYSFAVESLRQNIDLTHLPDGTYFFRLDNYTTKLIKQ | not soluble
MSLNAGAVKLDESMTPMQAMAAVAAECVDHIARNAAVLAEVDTLGVYRAGTPEHVHQLRVGVRRLRSAWRLFDGWIADPSETLAQGARTHFSAFGMARDQDVLADTIMPLLARAGMPALPAEAAPSNDNAQSLAADRAFQGWLLELLAWSLDVPAEAAPPALRKRLTGRLRRWHLKVIDEGLRFGALELEARHELRKRVKRLRYGLSFAESLLPAARLRTYRKQLARVQDLLGEINDLAVARDYYQAALQAHPQAWFAVGWIGARLDGLTPQAQEAFDQLAHAKPFWKEGHHHHHH | not soluble
MAFNIESLLEKKSNPVEEGNDFEEENDSEKNGEEDEEEEEKNVIDGWTNMATSQLAMFAIANDLRTPTLVELQMLLGVSARKHDYKRSRKSVCERKPRQAYSARQLDRLETEFQTDKYLSVNKRIQLSQTLNLTETQIKTWFQNRRTKWKKQLTSSIRQMVKDAPTSTSVGVPFQSLLTPPTPPTTLACHVNSLFACEQ | not soluble
MSLKITKLEKKKRLYLMELDNGDKCYITEDTIVRFMLSRDKVISEEELKEIQDFAQFSYGKNLALYHLSFKARTEKEVREYLKKYDIDKNIVSQVIANLKEDKWINDGQYAYAIINTNQLSGDKGPYVLTQKLAQKGISKSTIEENLKEFDFSEVAQRVANKLLKKYEGKLPARALQDKIIQNLTNKGFSYSDAKIAFDDLDSQVDQETTQELIFKELDKQYTKYARKYEGYELKQRLTQVLARKGYDFSDIASALREYLEGHHHHHH | soluble
MGSDKIHHHHHHMQKNITSLSGLNWDDLKFFLEVARTRKVSSAARRLAVDYTTVSRRINSLETSLGTLLFEKSRNNGFIMTAEGQRLLGYAESIESTLHMACEQVSGSSVALSGHIRMGCTEGFGSFFITPQLSHFLDNYPSISVDILPLPHFISLSKREADIVIALERPEHGPYVCCKLCDYSLRLYATQEYLDNHAPIQRKADLSEHVFISYVDDLAFSSELLYLSNLLPNAQAQLRSTSVIAQYTAALQGRALAILPCFLAAQDPRLLPVLTEEVNITRQFWMYCREDLRKLKRITLLWDYIREVTELNKGFLLGENRAARFV | not soluble
MSLNKYLEQLVLLSKIDQEIDSYEPKIDSINKTLKDAELKIEKINADLEKIDEEIKDIENQKIQNNAHISEFSAKIKDLSKKSGVVKTEKEANALKIEEDIAKEQLDAANDEIVRLDKILENKETYKKELEEEKIKQEQNINEIRVSIKSEMEVLEKDRMSVYDKKTKLVSEMNQKVLSFYEKIRKWAKNTAVVPVKKQACYGCFMKIYDKTYLSVVKGEEIVTCPHCGRILYKEQEEQNEGHHHHHH | soluble
MGSDKIHHHHHHMLHYNALTRGCGRITLLMLGLALCQPVFAHPHSFIDMQTTVESQNDNITGLRMQWTMDPITSADLLYDAGKAKKDSEVWKKLAAEVMANVLGQHYFTDIYRDSQPVKYAPMPTEYHLSRKGNQAILEFVLPLAHPQPLAGKPLLISTYDPTYFVDMSYQNDKAVKLAPALASRCKTSLVTPKPNTELQSYALSLDKNDAPDEDMDLGKQFAQRVTLQCQ | not soluble
MSLKRVSEMKFCFCGEKKDSRVKPLRVAIIGAGPAGLSAACSLACDGFDVHVYDKMPEPGGMVAFGIPEWRIPISKVRQAVKEIEELGVVFHMRTKVVYDSPKELGDEFAERFVSLEKLMKEYDAILIATGAWRPRILDIPGKELKGVENALQLLLRINLARIGYLPQTKMPSFEGKRVVVIGAGYTAVDVAKEAKLLGAKSVTIAYRRSLQDSYAKNEFKKLIKEGVKFLEYVTPVRIFGDENVREVEFAKTKVVRGSVITTEEKRTIPADVIIFAIGQIPTNPIKEVLCSNEDILKNAGIFFAGDVISPRNIGTAIREGRKVAEEIKAWLTEHAFLNIRLSYPVSLRDISKSATEGHHHHHH | soluble
MKEHVKDKKTAIMGAALKLFTERGFHGTSTAQISKNAGVATGTLFNYFPTKEDLINSLYFEVKGNLGHSMGVGLEAETTFQDKLKRIWSNLVNWGVNNQEEFLFVGQFCSSPYITKFTRDEVMKEYVFLHNFVDEGIKTGEVRDFPAELVIAMFYQGSREVVNLILDSDSSLDKNKIIADGFQILWRGLAKV | not soluble
SDLVITQELARAESQQDAASLKKAYELIKSANLGKSEFDPSESFSPDLFVLCAEQALKMRQPEVSEDCIQMYFKVKAPITQFLGRAHLCRAQMCAPKSAENLEEFENCVTEYMKAINFAKGEPRYYFLVYNASVLYWQMVRPFLKPGYRHHLIPSLSQIINVLSQTEEEDKEWRAELMLELLECYLQAGRKEEAARFCSTAAPFIKSHVPQKYRQIFSVMVNQRIRNRDVRSNFLKSHCSENCVEIT | soluble
HPISLMRAPVNEIMVGLGYYEVMPFTLTSEKVNFENMCREKTDDVTYVLHPISEDQTMLRTTVLPNLLEILALNQHRELPQKIFEFGEVVSNETTGQHVAAVSIHPQANFTEVYEVVDAFMREMMLSYEVKESKDPAFLEGRRADVYVNGKKLGVFGELQPEVISKFSLGYAVVGFELDLNDLIGKN | not soluble
MGSDKIHHHHHHMTTNEIEIRLMQDVDAAGVVELYKTVYGNEYPVKTVYDPAAVIEQQNNGEMYRIIARSGDKVVGQTALYRSTSPNPELYEEGQGIVLPLYRNQGILEQCLAYGHKVAYPQLNIKQEWGEAVCNHTFTQKAGARLGAFETGIELDLMPASSYVKEQSSQGRVAALVMFLIFQAAPPQLLYLPETYADSLHYLYSAYDFKHEFVSSKSLLPEQATRGQVEIYADAAVARFTLLETGKDLEDYLLEQEKLAQAQGCSVFQAYLKLANPAVGHAVNILREHQYFLGGILPRWFATDGLLMQKLLHEPNLEGINLYSERSHKILNMIIDDRNTVIK | not soluble
PVYVDFDVPADLEDDALEALEVARDTGAVKKGTNETTKSIERGSAELVFVAEDVQPEEIVMHIPELADEKGVPFIFVEQQDDLGHAAGLEVGSAAAAVTDAGAAATVLEEIADKVEELR | soluble
TTEEKKEEFLATVIDSVGDGVIVIDLDGRIALMNPAAEEISGISRRQAVGHRFALVFHREAVLREMVGKTATSGMTISDHENIVIRKLKQLTPVSATTFPLMLPHGETTGTILVLRD | not soluble
MSGYACNQPQLYSQCNCPSFCSGYMQQQPQYYQSPCGYSSGCSGGSGGGYYPRRRHHKHKKPRRKFRFDSDEDEDLPPPPPRKSAKISRVHSEEQGFIEEKPRVTETTKTDSSWENEDLWEKKFVTESTHTKAEEKLDSEEFPEITSEEIEAAMRRKTTLPPRVVQPQPVAPAGGGLGGLGLGNGGLFGISSGVGVGVPGVGPIGVSSGLGIGK | not soluble
MIKDYLIETMNQDEVNLAITWAAQEGWNPGIHDATCFYQTDPHGFFAGKLNGKTIAIGSAVIYDDFFAFCGFYIVDKSYRDQGYGLELTKARLAYIGNRNAGIDGVINMLDKYARIGYQLAHNNARYCLNKTIKPISSEPHIVPLNQIDFSQLSSYDRLHFPAPRPQFLKCWINQPQSLALAYLIDGQIKGYGVIRTCHKGFKIGPLFAGTPEIAHQLFSNLVPYAKGQLIFLDIPENNPLAIELVSQYQMKKVFATARMYLKGEPPVKKESIYGITTFELG | not soluble
FLETLAKVKKIFIDKTGTLTQKEVLLKEKIIYEEFDGRLLKSLLKVREHLAHSAILKSLDGDEVSLEKIEFFAHGLKASYQNETLLVGSLKFLGSMGVDIPMKESANIMVGFAKNETLCALFILEERLKANAKEVVQALQNKGLELEILSGDNESSVKECAKKLGISNYHAHLTPEDKAQTISSYKGVCAMVGDGNNDALALKQASVSLGFEKSALSKSACDILLLEEDLSLLKKAFDNAQKVYQVVLQ | not soluble
MGSDKIHHHHHHCAASWVHPLTGAHLLLFGTEQGIYSFDTNCMPDGNLSKIHHRRCSWMFVYADRLTAIQGNTPYVYRHDLVALTQKNLTLKMSKNLNKIPEKYVPKRLAITVRMPETRGALQCTVKRGQGAQANSLFLCCAVRKTVHLFQWYNPMNQFVLVRSEPIREDIRFPIRPFALINSRTSDFPELCIGVGQMSGSNEYQFNMINFCSSTNNSELSGDLNSSYGSLADDEMLEVGSMHQIDRDTLCFSFRNKVVLTDLQGFERPKPSIFTFNFHIEYLHVVDGTILAFHANGVQGRDLKSNLNTQDLCDVSRLYRVIGDDRVIILRSQP | not soluble
MKSLDDLDFDNRFARLGGAFSTEVLPDPIAEPRLVVASPAALALLDLPAETSDEALFAELFGGHKLWSEAEPRAMVYSGHQFGSYNPRLGDGRGLLLGEVINQAGEHWDLHLKGAGQTPYSRMGDGRAVLRSSIREFLASEALPALGIPSSRALCVIGSSTPVWREKKESAATLLRLAPSHVRFGHFEYFYYTRQHDQLKQLAAFVLEHHFADCNAAERPYAAMFRQVVERNAELIARWQAYGFCHGVMNTDNMSILGITFDYGPYAFLDDFDANHICNHSDDAGRYSFSNQVPIAHWNLAALAQALTPLVEVDELRASLDLFLPLYQAHYLDLMRRRLGLGVAAENDHALVQELLQRMQGSAVDYSLFFRRLGEETPERALASLRDDFVDREAFDRWAEAYRRRVEEEGGDQESRRRRMHAVNPLYVLRNYLAQQAIEAAEQGDYTEVRLLHQVLSRPFEEQPGMERFTRRPPDWGRHLEISCSS | not soluble
MKKDIILSGVGGQGILSIATVIGKAALKDGLYMKQAEVHGMSQRGGDVQSNLRISDQPIASDLIPSGKCDLIISLEPMEGLRYLPYLGHEGWLVTNETPFVNIPNYPAESDVMAEINKLPHKVVLNVDKVAKELGSTRVANIVLLGATIPFLGIDYEKIQDSIREIFQRKGDAIVELNLKALAAGKEIAEK | soluble
MSLRKGIIAAGNMLVDHVHQIRQWPERGWLVEIVHSERATGGAPLNVLLTLAKMHAGLPLQAVGLIGEDNDGDYITAMLDQYHINRQLVQRTSSAPTSMTQVMTDAEGQRTFFHSPGANRLLDLPAFEPLDAPLKIFHLGYLLLLESLDRPDEVYGTRSARLLAQMRERGYEVSLDLVSRKGDPRYRPLVLPALKHLDYLTINELEASEFSGLEIRLPNGEPHVANIARAASALLDAGVRQRVVIHCPEGAWGVSRTEAGRWVPSWRLPPEEIIGSVGAGDAFCAGLLYGSHERWPLTASLQLAHACARASLQAANAIDGAKTLPELQAFIQLQNGEGHHHHHH | soluble
